B1: micF DNA2-Cy5-biotin (bioDNA) (dsDNA)
DNA 1: GTATTTGACAGCACTGAATGTCAAAACAAAACCTTCACTCGCAACTATAATGGGAGCTGTCACGGATGCAACTTTATTTATTACC
DNA 2: GGTAATAAATAAAGTTGCATCCGTGACAGCTCCCATTATAGTTGCGAGTGAAGGTTTTGTTTTGACATTCAGTGCTGTCAAATAC
modifications: internal Cy5-dT in template strand
B2: micF DNA2-Cy5 (dsDNA)
DNA 1: B1 DNA 1
DNA 2: B1 DNA 2
modifications: internal Cy5-dT in template strand

Columns and labels:
[1] = target: Rob Cys281-Cy3B;RNA polymerase sigma70 holoenzyme (Escherichia coli;Escherichia coli, UniProt P0ACI0;P0A7Z4;P0A8V2;P0A8T7;P0A800;P00579 1-289;1-329;1-1342;1-1407;1-91;1-613, C147S;C247S|); experiment: single-molecule FRET
[2] = target: Rob Cys281-Cy3B;biotinylated RNAP holoenzyme (Escherichia coli;Escherichia coli?, UniProt P0ACI0;P0A7Z4;P0A8V2;P0A8T7;P0A800;P00579 1-289;1-329;1-1342;1-1407;1-91;1-613, C147S;C247S|); experiment: single-molecule FRET

Binder | binding result [1] | binding result [2]
B1 | binds | –
B2 | – | binds

Reference: article PMC9178005
